Data: IntAct's records for PubMed 18323775

B1: Zinc finger protein-like 1 (Mus musculus), Q9DB43 (parent)
chain: MGLCKCPKRKVTNLFCFEHRVNVCEHCLVANHAKCIVQSYLQWLQDSDYNPNCRLCNTPLASRETTRLVCYDLFHWACINERAAQLPRNTAPAGYQCPSCNGPIFPPANLAGPVASALREKLATVNWARAGLGLPLIDEVISPEPEPLNSSDFSDWSSFNATTTSVQEERASTPSAPAFYSQAPRPPPSPSRPEQHTVIHMGSTEALAHAPRKVYDTRDDDRTAGIHGDCDDDKYRRRPALGWLAQLLRSRAGSRKRPLTLLQRAGLLLLLGLLGFLALLALMSRLGRAAADSDPNLDPLMNPHIRVGPS
partner: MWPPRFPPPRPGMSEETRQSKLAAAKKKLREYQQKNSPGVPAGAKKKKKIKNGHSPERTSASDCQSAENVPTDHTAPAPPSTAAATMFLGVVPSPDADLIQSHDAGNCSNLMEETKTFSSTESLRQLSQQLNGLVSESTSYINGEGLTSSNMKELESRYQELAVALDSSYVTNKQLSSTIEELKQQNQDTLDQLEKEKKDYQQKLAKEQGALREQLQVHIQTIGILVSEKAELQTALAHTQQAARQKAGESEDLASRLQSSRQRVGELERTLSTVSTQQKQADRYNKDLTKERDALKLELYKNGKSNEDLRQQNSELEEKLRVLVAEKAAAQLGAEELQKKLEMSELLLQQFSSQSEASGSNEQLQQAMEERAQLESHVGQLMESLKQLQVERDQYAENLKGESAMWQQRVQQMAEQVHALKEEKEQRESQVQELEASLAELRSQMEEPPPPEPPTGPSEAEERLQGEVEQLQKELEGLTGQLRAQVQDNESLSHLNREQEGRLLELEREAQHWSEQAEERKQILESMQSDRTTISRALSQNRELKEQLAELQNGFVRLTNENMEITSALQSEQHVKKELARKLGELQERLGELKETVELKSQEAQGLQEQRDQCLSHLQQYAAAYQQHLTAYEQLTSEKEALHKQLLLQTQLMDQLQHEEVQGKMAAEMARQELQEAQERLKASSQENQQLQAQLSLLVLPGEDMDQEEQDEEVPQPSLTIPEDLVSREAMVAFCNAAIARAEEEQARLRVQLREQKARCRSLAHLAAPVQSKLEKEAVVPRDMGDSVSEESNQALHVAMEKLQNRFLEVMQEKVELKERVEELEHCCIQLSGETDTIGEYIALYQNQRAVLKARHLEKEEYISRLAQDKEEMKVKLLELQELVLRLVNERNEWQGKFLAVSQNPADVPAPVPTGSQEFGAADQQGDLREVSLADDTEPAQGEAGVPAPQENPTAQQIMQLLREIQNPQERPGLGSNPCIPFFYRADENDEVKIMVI

Variants of: B1
Settings: with goga2_rat Golga2, Q62839
In the case of MGLCKCPKRKVTNLFCFEHRVNVCEHCLVANHAKCIVQSYLQWLQDSDYNPNARLCNTPLASRETTRLVCYDLFHWACINERAAQLPRNTAPAGYQCPSCNGPIFPPANLAGPVASALREKLATVNWARAGLGLPLIDEVISPEPEPLNSSDFSDWSSFNATTTSVQEERASTPSAPAFYSQAPRPPPSPSRPEQHTVIHMGSTEALAHAPRKVYDTRDDDRTAGIHGDCDDDKYRRRPALGWLAQLLRSRAGSRKRPLTLLQRAGLLLLLGLLGFLALLALMSRLGRAAADSDPNLDPLMNPHIRVGPS [C53A], the “effect of a mutation on the interaction” value is reported as “decreasing interaction”.

Variants of: B1
Settings: with goga2_rat Golga2, Q62839
Remark: another data set of the same source
MGLCKCPKRKVTNLFCFEHRVNVCEHALVANHAKCIVQSYLQWLQDSDYNPNCRLCNTPLASRETTRLVCYDLFHWACINERAAQLPRNTAPAGYQCPSCNGPIFPPANLAGPVASALREKLATVNWARAGLGLPLIDEVISPEPEPLNSSDFSDWSSFNATTTSVQEERASTPSAPAFYSQAPRPPPSPSRPEQHTVIHMGSTEALAHAPRKVYDTRDDDRTAGIHGDCDDDKYRRRPALGWLAQLLRSRAGSRKRPLTLLQRAGLLLLLGLLGFLALLALMSRLGRAAADSDPNLDPLMNPHIRVGPS [C27A] was tested, and the “effect of a mutation on the interaction” value was “decreasing interaction”.

Variants of: B1
Settings: with goga2_rat Golga2, Q62839
Remark: another data set of the same source
MGLCKCPKRKVTNLFCFEHRVNVCEHALVANHAKCIVQSYLQWLQDSDYNPNCRLCNTPLASRETTRLVCYDLFHWACINERAAQLPRNTAPAGYQCPSCNGPIFPPANLAGPVASALREKLATVNWARAGLGLPLIDEVISPEPEPLNSSDFSDWSSFNATTTSVQEERASTPSAPAFYSQAPRPPPSPSRPEQHTVIHMGSTEALAHAPRKVYDTRDDDRTAGIHGDCDDDKYRRRPALGWLAQLLRSRAGSRKRPLTLLQRAGLLLLLGLLGFLALLALMSRLGRAAADSDPNLDPLMNPHIRVGPS [C27A] was tested, and the “effect of a mutation on the interaction” value was “disrupting interaction”.

Variants of: B1
Settings: with goga2_rat Golga2, Q62839
Remark: another data set of the same source
In the case of MGLCKAPKRKVTNLFCFEHRVNVCEHCLVANHAKCIVQSYLQWLQDSDYNPNCRLCNTPLASRETTRLVCYDLFHWACINERAAQLPRNTAPAGYQCPSCNGPIFPPANLAGPVASALREKLATVNWARAGLGLPLIDEVISPEPEPLNSSDFSDWSSFNATTTSVQEERASTPSAPAFYSQAPRPPPSPSRPEQHTVIHMGSTEALAHAPRKVYDTRDDDRTAGIHGDCDDDKYRRRPALGWLAQLLRSRAGSRKRPLTLLQRAGLLLLLGLLGFLALLALMSRLGRAAADSDPNLDPLMNPHIRVGPS [C6A], the “effect of a mutation on the interaction” value is reported as “disrupting interaction”.
